Assay results as given in US20200270325A1 (Merck Sharp & Dohme, published 2020).
Numbered stars: 1 amine (or outer) side, 2 acyl side, 3 side chain; on linkers, the order of the positions; unused ones are H or OH. Square brackets hold non-standard residues; d marks the D form. Side chains are listed from the residue outwards. Ends that are not written are not given here. * marks the point of attachment. Phe(4-CH2NH2) = NCc1ccc(C[C@H](N)C(=O)O)cc1; C18 diacid = O=C(O)CCCCCCCCCCCCCCCCC(=O)*; αMeW = C[C@](N)(Cc1c[nH]c2ccccc12)C(=O)O; C16 diacid = O=C(O)CCCCCCCCCCCCCCC(=O)*; γGlu = O=C(O)[C@H](CCC(=O)[*:2])N[*:1]; Met(O2) = CS(=O)(=O)CC[C@H](N)C(=O)O; αMeF = C[C@](N)(Cc1ccccc1)C(=O)O; αMeD = C[C@](N)(CC(=O)O)C(=O)O; AEEA = NCCOCCOCC(=O)O; Aib = CC(C)(N)C(=O)O

Experiments:
[1] = molecular target: human Glucagon receptor (GCGR) (human, UniProt P47871 26-477); test: cell-based or functional assay
Sequence of human Glucagon receptor (GCGR) (P47871 26-477): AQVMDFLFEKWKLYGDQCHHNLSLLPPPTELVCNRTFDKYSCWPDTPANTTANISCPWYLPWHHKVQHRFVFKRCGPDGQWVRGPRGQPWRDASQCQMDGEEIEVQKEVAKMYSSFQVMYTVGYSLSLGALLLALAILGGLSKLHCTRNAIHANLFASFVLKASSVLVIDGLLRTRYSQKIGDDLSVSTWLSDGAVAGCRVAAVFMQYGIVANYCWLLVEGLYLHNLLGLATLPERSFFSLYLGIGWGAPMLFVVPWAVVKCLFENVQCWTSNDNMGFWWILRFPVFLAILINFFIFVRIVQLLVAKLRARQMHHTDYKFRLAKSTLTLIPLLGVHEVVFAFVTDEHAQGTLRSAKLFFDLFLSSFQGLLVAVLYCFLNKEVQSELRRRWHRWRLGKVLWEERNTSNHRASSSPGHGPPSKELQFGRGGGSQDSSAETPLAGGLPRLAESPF

[2] = molecular target: human GLP-1 receptor (GLP1R) (human, UniProt P43220 24-463); test: cell-based or functional assay

Row | Binder | GCGR EC50 human [1] [nM] | GLP1R EC50 human [2] [nM]
1 | H[Aib]QGTFTSDYSKYLDARAAK([AEEA-AEEA-γGlu-C16 diacid])DFVQ[αMeW]L[Met(O2)]DT-NH2 (N-terminus assumed; SMILES CC(C)C[C@H](NC(=O)[C@H](Cc1ccc(O)cc1)NC(=O)[C@H](CCCCN)NC(=O)[C@H](CO)NC(=O)[C@H](Cc1ccc(O)cc1)NC(=O)[C@H](CC(=O)O)NC(=O)[C@H](CO)NC(=O)[C@@H](NC(=O)[C@H](Cc1ccccc1)NC(=O)[C@@H](NC(=O)CNC(=O)[C@H](CCC(N)=O)NC(=O)C(C)(C)NC(=O)[C@@H](N)Cc1c[nH]cn1)[C@@H](C)O)[C@@H](C)O)C(=O)N[C@@H](CC(=O)O)C(=O)N[C@@H](C)C(=O)N[C@@H](CCCNC(=N)N)C(=O)N[C@@H](C)C(=O)N[C@@H](C)C(=O)N[C@@H](CCCCNC(=O)COCCOCCNC(=O)COCCOCCNC(=O)CC[C@H](NC(=O)CCCCCCCCCCCCCCC(=O)O)C(=O)O)C(=O)N[C@@H](CC(=O)O)C(=O)N[C@@H](Cc1ccccc1)C(=O)N[C@H](C(=O)N[C@@H](CCC(N)=O)C(=O)N[C@@](C)(Cc1c[nH]c2ccccc12)C(=O)N[C@@H](CC(C)C)C(=O)N[C@@H](CCS(C)(=O)=O)C(=O)N[C@@H](CC(=O)O)C(=O)N[C@H](C(N)=O)[C@@H](C)O)C(C)C) [TP630] | 0.89 | 0.29
2 | HXQGTFTSDYSKYLDARAAXXFVQWLXDT (Aib (U) at 2; K(PEG2PEG2γEC20-OH) at 20; αMD at 21; L-methionine sulphone (2) at 27; C-terminal amide) [TP594] | 4.95 | 2.6
3 | H[Aib]QGTFTSDYSKLLDARAAK([AEEA-AEEA-γGlu-C18 diacid])DFVQWL[Met(O2)][αMeD]T-NH2 (N-terminus assumed; SMILES CC(C)C[C@H](NC(=O)[C@H](CC(C)C)NC(=O)[C@H](CCCCN)NC(=O)[C@H](CO)NC(=O)[C@H](Cc1ccc(O)cc1)NC(=O)[C@H](CC(=O)O)NC(=O)[C@H](CO)NC(=O)[C@@H](NC(=O)[C@H](Cc1ccccc1)NC(=O)[C@@H](NC(=O)CNC(=O)[C@H](CCC(N)=O)NC(=O)C(C)(C)NC(=O)[C@@H](N)Cc1c[nH]cn1)[C@@H](C)O)[C@@H](C)O)C(=O)N[C@@H](CC(=O)O)C(=O)N[C@@H](C)C(=O)N[C@@H](CCCNC(=N)N)C(=O)N[C@@H](C)C(=O)N[C@@H](C)C(=O)N[C@@H](CCCCNC(=O)COCCOCCNC(=O)COCCOCCNC(=O)CC[C@H](NC(=O)CCCCCCCCCCCCCCCCC(=O)O)C(=O)O)C(=O)N[C@@H](CC(=O)O)C(=O)N[C@@H](Cc1ccccc1)C(=O)N[C@H](C(=O)N[C@@H](CCC(N)=O)C(=O)N[C@@H](Cc1c[nH]c2ccccc12)C(=O)N[C@@H](CC(C)C)C(=O)N[C@@H](CCS(C)(=O)=O)C(=O)N[C@@](C)(CC(=O)O)C(=O)N[C@H](C(N)=O)[C@@H](C)O)C(C)C) [TP640] | 0.69 | 0.84
4 | H[Aib]QGTFTSDYSKYLDARAAK([AEEA-AEEA-γGlu-C20‑OH])D[αMeF]VQWL[Met(O2)]DT-NH2 [TP590] | 5.03 | 1.64
5 | H[Aib]QGTFTSDYSKYLDERAA[Phe(4-CH2NH2)]([AEEA-AEEA-γGlu-C18 diacid])DFVQWLLKT-NH2 (N-terminus assumed; SMILES CC(C)C[C@H](NC(=O)[C@H](Cc1ccc(O)cc1)NC(=O)[C@H](CCCCN)NC(=O)[C@H](CO)NC(=O)[C@H](Cc1ccc(O)cc1)NC(=O)[C@H](CC(=O)O)NC(=O)[C@H](CO)NC(=O)[C@@H](NC(=O)[C@H](Cc1ccccc1)NC(=O)[C@@H](NC(=O)CNC(=O)[C@H](CCC(N)=O)NC(=O)C(C)(C)NC(=O)[C@@H](N)Cc1c[nH]cn1)[C@@H](C)O)[C@@H](C)O)C(=O)N[C@@H](CC(=O)O)C(=O)N[C@@H](CCC(=O)O)C(=O)N[C@@H](CCCNC(=N)N)C(=O)N[C@@H](C)C(=O)N[C@@H](C)C(=O)N[C@@H](Cc1ccc(CNC(=O)COCCOCCNC(=O)COCCOCCNC(=O)CC[C@H](NC(=O)CCCCCCCCCCCCCCCCC(=O)O)C(=O)O)cc1)C(=O)N[C@@H](CC(=O)O)C(=O)N[C@@H](Cc1ccccc1)C(=O)N[C@H](C(=O)N[C@@H](CCC(N)=O)C(=O)N[C@@H](Cc1c[nH]c2ccccc12)C(=O)N[C@@H](CC(C)C)C(=O)N[C@@H](CC(C)C)C(=O)N[C@@H](CCCCN)C(=O)N[C@H](C(N)=O)[C@@H](C)O)C(C)C) [TP587] | 2.49 | 0.41
6 | HXQGTFTSDXSKYLDARAAQDFVQWLLDT (D-Ser (s) at 2; Nle(1,2,3-triazole-4-γE-C16) at 10; C-terminal amide) [TP830] | 0.14 | 0.22
7 | HXQGTFTSDYSKYLDSRAAXDFVQWLXDT (Aib (U) at 2; K(PEG2PEG2γEC20-OH) at 20; L-methionine sulphone (2) at 27; C-terminal amide) [TP577] | 4.54 | 1.67
8 | H[Aib]QGTFFSDYSKYLDARAAK([AEEA-AEEA-γGlu-C18 diacid])DFVQWL[Met(O2)]DT-NH2 (N-terminus assumed; SMILES CC(C)C[C@H](NC(=O)[C@H](Cc1ccc(O)cc1)NC(=O)[C@H](CCCCN)NC(=O)[C@H](CO)NC(=O)[C@H](Cc1ccc(O)cc1)NC(=O)[C@H](CC(=O)O)NC(=O)[C@H](CO)NC(=O)[C@H](Cc1ccccc1)NC(=O)[C@H](Cc1ccccc1)NC(=O)[C@@H](NC(=O)CNC(=O)[C@H](CCC(N)=O)NC(=O)C(C)(C)NC(=O)[C@@H](N)Cc1c[nH]cn1)[C@@H](C)O)C(=O)N[C@@H](CC(=O)O)C(=O)N[C@@H](C)C(=O)N[C@@H](CCCNC(=N)N)C(=O)N[C@@H](C)C(=O)N[C@@H](C)C(=O)N[C@@H](CCCCNC(=O)COCCOCCNC(=O)COCCOCCNC(=O)CC[C@H](NC(=O)CCCCCCCCCCCCCCCCC(=O)O)C(=O)O)C(=O)N[C@@H](CC(=O)O)C(=O)N[C@@H](Cc1ccccc1)C(=O)N[C@H](C(=O)N[C@@H](CCC(N)=O)C(=O)N[C@@H](Cc1c[nH]c2ccccc12)C(=O)N[C@@H](CC(C)C)C(=O)N[C@@H](CCS(C)(=O)=O)C(=O)N[C@@H](CC(=O)O)C(=O)N[C@H](C(N)=O)[C@@H](C)O)C(C)C) [TP595] | 0.4 | > 20
9 | H[Aib]QGTFTSDYSKYLDALAAK([AEEA-AEEA-γGlu-C18 diacid])DFVQWL[Met(O2)]DT-NH2 (N-terminus assumed; SMILES CC(C)C[C@H](NC(=O)[C@H](C)NC(=O)[C@H](CC(=O)O)NC(=O)[C@H](CC(C)C)NC(=O)[C@H](Cc1ccc(O)cc1)NC(=O)[C@H](CCCCN)NC(=O)[C@H](CO)NC(=O)[C@H](Cc1ccc(O)cc1)NC(=O)[C@H](CC(=O)O)NC(=O)[C@H](CO)NC(=O)[C@@H](NC(=O)[C@H](Cc1ccccc1)NC(=O)[C@@H](NC(=O)CNC(=O)[C@H](CCC(N)=O)NC(=O)C(C)(C)NC(=O)[C@@H](N)Cc1c[nH]cn1)[C@@H](C)O)[C@@H](C)O)C(=O)N[C@@H](C)C(=O)N[C@@H](C)C(=O)N[C@@H](CCCCNC(=O)COCCOCCNC(=O)COCCOCCNC(=O)CC[C@H](NC(=O)CCCCCCCCCCCCCCCCC(=O)O)C(=O)O)C(=O)N[C@@H](CC(=O)O)C(=O)N[C@@H](Cc1ccccc1)C(=O)N[C@H](C(=O)N[C@@H](CCC(N)=O)C(=O)N[C@@H](Cc1c[nH]c2ccccc12)C(=O)N[C@@H](CC(C)C)C(=O)N[C@@H](CCS(C)(=O)=O)C(=O)N[C@@H](CC(=O)O)C(=O)N[C@H](C(N)=O)[C@@H](C)O)C(C)C) [TP599] | 3.47 | 2.21
10 | H[Aib]QGTFTSDYSKYLD[Aib]RAAQDFVK([AEEA-AEEA-γGlu-C20‑OH])WL[Met(O2)]DT-NH2 [TP576] | 1.45 | 1.88
11 | H[dS]QGTFTSDYSKYLE[Aib]RAAK([AEEA-AEEA-γGlu-C20‑OH])DFVQWLL[Aib]TK-{γGlu-NH2} [TP579] | > 19.9 | 14.7
12 | HXQGTFTSDXSKYLDARAAQDFVQWLLDT (D-Ser (s) at 2; Nle(1,2,3-triazole-4-C4-Lys-C16) at 10; C-terminal amide) [TP831] | 0.14 | 0.08
13 | H[Aib]QGTFLSDYSKYLDARAAK([AEEA-AEEA-γGlu-C18 diacid])DFVQWL[Met(O2)]DT-NH2 (N-terminus assumed; SMILES CC(C)C[C@H](NC(=O)[C@H](Cc1ccc(O)cc1)NC(=O)[C@H](CCCCN)NC(=O)[C@H](CO)NC(=O)[C@H](Cc1ccc(O)cc1)NC(=O)[C@H](CC(=O)O)NC(=O)[C@H](CO)NC(=O)[C@H](CC(C)C)NC(=O)[C@H](Cc1ccccc1)NC(=O)[C@@H](NC(=O)CNC(=O)[C@H](CCC(N)=O)NC(=O)C(C)(C)NC(=O)[C@@H](N)Cc1c[nH]cn1)[C@@H](C)O)C(=O)N[C@@H](CC(=O)O)C(=O)N[C@@H](C)C(=O)N[C@@H](CCCNC(=N)N)C(=O)N[C@@H](C)C(=O)N[C@@H](C)C(=O)N[C@@H](CCCCNC(=O)COCCOCCNC(=O)COCCOCCNC(=O)CC[C@H](NC(=O)CCCCCCCCCCCCCCCCC(=O)O)C(=O)O)C(=O)N[C@@H](CC(=O)O)C(=O)N[C@@H](Cc1ccccc1)C(=O)N[C@H](C(=O)N[C@@H](CCC(N)=O)C(=O)N[C@@H](Cc1c[nH]c2ccccc12)C(=O)N[C@@H](CC(C)C)C(=O)N[C@@H](CCS(C)(=O)=O)C(=O)N[C@@H](CC(=O)O)C(=O)N[C@H](C(N)=O)[C@@H](C)O)C(C)C) [TP596] | 0.35 | > 20
14 | HXQGTFTSDXSKYLDARAAQDFVQWLLDT (D-Ser (s) at 2; Nle(1,2,3-triazole-4-C15) at 10; C-terminal amide) [TP829] | 1.06 | 0.68
15 | H[Aib]QGTFTSDYSKYLDERAA[Phe(4-CH2NH2)]([AEEA-AEEA-γGlu-C20‑OH])DFVQWLLKT-NH2 [TP586] | 4.95 | 1.23
